How the values were obtained:
HeLa Kyoto [1] = assay: thermal stability score vs G1/S (z-score of summed log2 fold changes over temperatures); higher = more thermally stable than in G1/S
HeLa Kyoto [2] = assay: solubility change mitosis vs G1/S (difference of NP-40 vs SDS log2 ratios) (log2 ratio difference); higher = more soluble in mitosis
HeLa Kyoto [3] = assay: melting temperature (median over replicates), in situ; higher = more thermally stable
HeLa Kyoto [4] = assay: solubility in G1/S (NP-40 vs SDS abundance) (log2 ratio); higher = more soluble; settings: cell cycle stage: G1/S
[5] = cell cycle stage: early G1 (4.5 h after nocodazole release)
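For melting temperature (median over replicates), in situ in this document: HeLa Kyoto cells synchronized by double thymidine or nocodazole block, proteins quantified by TMT10plex mass spectrometry, three independent biological replicates.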
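For solubility change mitosis vs G1/S (difference of NP-40 vs SDS log2 ratios) in this document: synchronized HeLa Kyoto cells (double thymidine block for G1/S, nocodazole release for mitosis), protein amounts in NP-40 versus SDS lysates quantified by mass spectrometry, three biological replicates.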
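For solubility in G1/S (NP-40 vs SDS abundance) in this document: HeLa Kyoto cells arrested at G1/S by double thymidine block, proteins quantified by TMT10plex mass spectrometry in mild NP-40 versus SDS extracts, three biological replicates.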
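For thermal stability score vs G1/S (z-score of summed log2 fold changes over temperatures) in this document: synchronized HeLa Kyoto cells, proteins quantified by TMT10plex mass spectrometry, three biological replicates, mitosis taken 0.5 h after nocodazole release, G1/S directly after double thymidine block.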

Sequence | thermal stability score (HeLa Kyoto [1]; [5]) | thermal stability score (HeLa Kyoto [1]; cell cycle stage: mitosis) | solubility change mitosis (log2) (HeLa Kyoto [2]) | melting temperature (HeLa Kyoto [3]; cell cycle stage: G1/S) [°C] | melting temperature (HeLa Kyoto [3]; cell cycle stage: mitosis) [°C] | solubility in G1/S (log2) (HeLa Kyoto [4])
MSSVAVLTQESFAEHRSGLVPQQIKVATLNSEEESDPPTYKDAFPPLPEKAACLESAQEPAGAWGNKIRPIKASVITQVFHVPLEERKYKDMNQFGEGEQAKICLEIMQRTGAHLELSLAKDQGLSIMVSGKLDAVMKARKDIVARLQTQASATVAIPKEHHRFVIGKNGEKLQDLELKTATKIQIPRPDDPSNQIKITGTKEGIEKARHEVLLISAEQDKRAVERLEVEKAFHPFIAGPYNRLVGEIMQETGTRINIPPPSVNRTEIVFTGEKEQLAQAVARIKKIYEEKKKKTTTIAVEVKKSQHKYVIGPKGNSLQEILERTGVSVEIPPSDSISETVILRGEPEKLGQALTEVYAKANSFTVSSVAAPSWLHRFIIGKKGQNLAKITQQMPKVHIEFTEGEDKITLEGPTEDVNVAQEQIEGMVKDLINRMDYVEINIDHKFHRHLIGKSGANINRIKDQYKVSVRIPPDSEKSNLIRIEGDPQGVQQAKRELLELASRMENERTKDLIIEQRFHRTIIGQKGERIREIRDKFPEVIINFPDPAQKSDIVQLRGPKNEVEKCTKYMQKMVADLVENSYSISVPIFKQFHKNIIGKGGANIKKIREESNTKIDLPAENSNSETIIITGKRANCEAARSRILSIQKDLANIAEVEVSIPAKLHNSLIGTKGRLIRSIMEECGGVHIHFPVEGSGSDTVVIRGPSSDVEKAKKQLLHLAEEKQTKSFTVDIRAKPEYHKFLIGKGGGKIRKVRDSTGARVIFPAAEDKDQDLITIIGKEDAVREAQKELEALIQNLDNVVEDSMLVDPKHHRHFVIRRGQVLREIAEEYGGVMVSFPRSGTQSDKVTLKGAKDCVEAAKKRIQEIIEDLEAQVTLECAIPQKFHRSVMGPKGSRIQQITRDFSVQIKFPDREENAVHSTEPVVQENGDEAGEGREAKDCDPGSPRRCDIIIISGRKEKCEAAKEALEALVPVTIEVEVPFDLHRYVIGQKGSGIRKMMDEFEVNIHVPAPELQSDIIAITGLAANLDRAKAGLLERVKELQAEQEDRALRSFKLSVTVDPKYHPKIIGRKGAVITQIRLEHDVNIQFPDKDDGNQPQDQITITGYEKNTEAARDAILRIVGELEQMVSEDVPLDHRVHARIIGARGKAIRKIMDEFKVDIRFPQSGAPDPNCVTVTGLPENVEEAIDHILNLEEEYLADVVDSEALQVYMKPPAHEEAKAPSRGFVVRDAPWTASSSEKAPDMSSSEEFPSFGAQVAPKTLPWGPKR [HDLBP] | 1.14 | 3.41 | -0.084 | 46.8 | 47.6 | 0.183
MSTAQSLKSVDYEVFGRVQGVCFRMYTEDEARKIGVVGWVKNTSKGTVTGQVQGPEDKVNSMKSWLSKVGSPSSRIDRTNFSNEKTISKLEYSNFSIRY [ACYP2] | -0.285 | -1.11 | -0.0326 | 53.7 | 53.4 | 0.215
MSTAREQPIFSTRAHVFQIDPATKRNWIPAGKHALTVSYFYDATRNVYRIISIGGAKAIINSTVTPNMTFTKTSQKFGQWADSRANTVYGLGFASEQHLTQFAEKFQEVKEAARLAREKSQDGGELTSPALGLASHQVPPSPLVSANGPGEEKLFRSQSADAPGPTERERLKKMLSEGSVGEVQWEAEFFALQDSNNKLAGALREANAAAAQWRQQLEAQRAEAERLRQRVAELEAQAASEVTPTGEKEGLGQGQSLEQLEALVQTKDQEIQTLKSQTGGPREALEAAEREETQQKVQDLETRNAELEHQLRAMERSLEEARAERERARAEVGRAAQLLDVSLFELSELREGLARLAEAAP [HOMER3] | -1.1 | -1.09 | 0.0389 | 48.7 | 51.7 | 0.263
MSTNGDDHQVKDSLEQLRCHFTWELSIDDDEMPDLENRVLDQIEFLDTKYSVGIHNLLAYVKHLKGQNEEALKSLKEAENLMQEEHDNQANVRSLVTWGNFAWMYYHMGRLAEAQTYLDKVENICKKLSNPFRYRMECPEIDCEEGWALLKCGGKNYERAKACFEKVLEVDPENPESSAGYAISAYRLDGFKLATKNHKPFSLLPLRQAVRLNPDNGYIKVLLALKLQDEGQEAEGEKYIEEALANMSSQTYVFRYAAKFYRRKGSVDKALELLKKALQETPTSVLLHHQIGLCYKAQMIQIKEATKGQPRGQNREKLDKMIRSAIFHFESAVEKKPTFEVAHLDLARMYIEAGNHRKAEENFQKLLCMKPVVEETMQDIHFHYGRFQEFQKKSDVNAIIHYLKAIKIEQASLTRDKSINSLKKLVLRKLRRKALDLESLSLLGFVYKLEGNMNEALEYYERALRLAADFENSVRQGP [IFIT1] | 1.47 | 2.07 | -0.063 | 49.1 | 48.3 | 0.322
